Data on one molecule can be found in article PMC8244865, “Recruitment of phospholipase Cγ1 to the non-structural membrane protein pK15 of Kaposi Sarcoma-associated herpesvirus promotes its Src-dependent phosphorylation” (PLoS Pathogens, 2021).

Experiment [1] concerns PLCγ1 (transfected and endogenous, HEK-293T lysates). As to the kind of experiment: GST-pulldown, full length PLCγ1. The class given is binding. As to conditions: in vitro phosphorylated by Src; transfected and endogenous PLCγ1, HEK 293 lysates; Western blot. On the procedure: Fig 2 K15 phosphorylation results in a stronger binding to PLCγ1. (A) An expression plasmid for an S-tagged full length PLCγ1 or the empty vector (EV) were transfected in HEK-293T cells. After 30h cells were lysed and a GST-pulldown assay was performed with GST-fused pK15 CT (WT), the pK15 CT Y^481F mutant (Y^481F) or GST that had been bound to glutathione beads and previously phosphorylated by GST-6xHis Src (+) or left unphosphorylated (-). Bound proteins were analysed by WB using antibodies to the S tag on PLCγ1 and pTyr. (B) Untransfected HEK-293T cells were lysed and a GST-pulldown assay with pre-phosphorylated (+) or unphosphorylated (-) GST-fused pK15 CT WT/Y^481F or GST was performed and analysed by WB as in (A). (C) An expression plasmid for an S-tagged PLCγ1 SA or the empty vector were transfected in HEK-293T cells. […]
(§1) HEK293T cells were washed once with cold PBS 30 hours after transfection, lysed in IP buffer (50 mM Tris pH7.6, 60 mM NaCl, 6.25 mM EDTA, 1% (v/v) glycerol, 0.04% (v/v) NP-40) on ice for 30 minutes, sonicated shortly and cleared by centrifugation for 10 minutes at 20.000g, 4°C. […] Beads were then washed 5 times in 500 μl IP buffer (or for purified proteins IP buffer with 200 mM NaCl), suspended in 10 μl of 5x Laemmli sample buffer (60 mM Tris pH6.8, 24% (v/v) glycerol, 2% (v/v) SDS, 5% (v/v) β-mercaptoethanol, 0.01% Bromphenol Blue) and analysed by western blot.

The test system of experiment [2] is full length PLCγ1 R586L+R694L. In words: GST-pulldown, full-length PLCγ1 double mutant. The note with it: phosphorylated; binding eliminated for SA domain but not full length. Here is the method:
Fig 3 Contribution of individual PLCγ1 SH2 domains to the interaction with phosphorylated pK15. The pK15 CT fused to GST, its Y^481F mutant, or GST alone were bound to glutathione beads, phosphorylated in vitro (+) or left unphosphorylated (-), and a GST pulldown was performed 32h after transfection into HEK-293T cells of expression vectors for S-tagged full-length PLCγ1 (FL) (A) or PLCγ1 SA (B) containing the indicated mutations. (C) pK15 CT WT, its Y^481F mutant or GST were bound to glutathione beads, phosphorylated in vitro (+) or left unphosphorylated (-), and used for a GST pulldown assay 32h after transfecting HEK 293T cells with expression vectors for S-tagged individual PLCγ1 nSH2 or cSH2 domains. […]
as §1

The next experiment concerns PLCγ1 tSH2 domain. As to the kind of experiment: AlphaLISA, PLCγ1 tSH2. The class given is binding. The note with it: phosphorylated by 2xStrep-Src, 300 nM each protein, 1 h room temperature, 615 nm, at least two independent experiments. Here is the method: (§2) Fig 4 The PLCγ1 cSH2 domain is required for the binding of PLCγ1 to phosphorylated pK15 in vitro and may serve as a dominant-negative inhibitor. GST-fused pK15 cytoplasmic tail WT (A), or its truncated mutant N2 [51] (B), were phosphorylated in vitro by 2xStrep-Src and an AlphaLISA was performed with the indicated His-tagged fragments of PLCγ1. Mean and standard deviation from at least two independent experiments with two technical replicates each are depicted. GST fusion proteins of the N1 (C) or N2 (D) truncation mutants of the pK15 cytoplasmic tail were phosphorylated in vitro by 2xStrep-Src and their interaction with recombinant purified PLCγ1 tSH2 (tandem SH2) or SA (γ-specific array) domains was measured by AlphaLISA in the presence of increasing concentrations (300 nM, 600 nM, 900 nM, 1200 nM) of the purified PLCγ1 cSH2. […] After 48h lysates were collected and analysed by Western blot using an antibody to PLCγ1 pY^783 to assess the level of PLCγ1 phosphorylation. (F) The intensities of the pPLCγ1 bands shown in panel E were quantified by densitometry, normalized to the values obtained with the empty vector (EV) in the presence of pK15, and plotted as relative values. […]
(§3) His-tagged PLCγ1 (SA, tSH2 or the isolated SH2 domains) was incubated at room temperature with GST-tagged K15P or its mutants for 1 hour. […] Emission at 615 nm was detected on BioTek Synergy 2 plate reader.
For orientation: Bead proximity is the source of the signal in Alpha formats.

The next experiment has as its system PLCγ1 SA domain. As to the kind of experiment: AlphaLISA, PLCγ1 SA. Format: binding. The note with it: phosphorylated by 2xStrep-Src, 300 nM each protein, 1 h room temperature, 615 nm, at least two independent experiments. On the procedure: as §2, §3

B1: pK15 CT^WT: pK15 cytoplasmic tail fused to GST at its N-terminal end, phosphorylated in vitro by Src (protein)
chain: SQLLNEVELQEVNRDPPNVFGYASILVSGAEESREPSPQPDQSGMSILRVDGGSAFRIDTAQAATQPTDDLYEEVLFPRN
modifications: tyrosine-phosphorylated in vitro by Src; sites not stated for this construct; left off: GST, N-terminal, kept
With B1, the “interaction with PLCγ1 (GST-pulldown)” value in experiment [1] was “substantial increase in its interaction with PLCγ1”. Further, the “binding of double mutant (GST-pulldown)” value in experiment [2] was “not to full length PLCγ1”. In addition, the “interaction (AlphaLISA)” value with PLCγ1 tSH2 domain is recorded as “bound more strongly to the PLCγ1 tSH2 domain than to the PLCγ1 SA domain”; in the experiment with PLCγ1 tSH2 domain (listed as pK15 CT^N2), “binds strongly to the PLCγ1 tSH2 domain”; in the experiment with PLCγ1 SA domain, “does interact with the PLCγ1 SA”; in the experiment on PLCγ1 SA domain (listed as pK15 CT^N2), “only bound weakly to PLCγ1 SA”.
